# Test results taken from patent publication US20140259226.
# Numbering of substitutions follows the chain as printed.
# T1: PYR1^CA4 (H60P, V83F, F159V, M158I), 6xHis fusion
# T1 chain: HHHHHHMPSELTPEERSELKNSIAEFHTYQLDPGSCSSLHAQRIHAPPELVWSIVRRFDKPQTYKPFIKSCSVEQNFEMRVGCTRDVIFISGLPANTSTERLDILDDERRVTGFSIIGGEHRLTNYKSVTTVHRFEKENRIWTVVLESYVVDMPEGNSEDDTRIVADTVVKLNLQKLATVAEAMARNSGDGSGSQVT
# T2: PYR1^CA3 (H60P, V83F, F159V), 6xHis fusion
# T2 chain: T1 chain with I164M
# B1: 6xHis-SUMO-ABI2 (protein)
# chain: HHHHHHSDSEVNQEAKPEVKPEVKPETHINLKVSDGSSEIFFKIKKTTPLRRLMEAFAKRQGKEMDSLRFLYDGIRIQADQTPEDLDMEDNDIIEAHREQIGGMDEVSPAVAVPFRPFTDPHAGLRGYCNGESRVTLPESSCSGDGAMKDSSFEINTRQDSLTSSSSAMAGVDISAGDEINGSDEFDPRSMNQSEKKVLSRTESRSLFEFKCVPLYGVTSICGRRPEMEDSVSTIPRFLQVSSSSLLDGRVTNGFNPHLSAHFFGVYDGHGGSQVANYCRERMHLALTEEIVKEKPEFCDGDTWQEKWKKALFNSFMRVDSEIETVAHAPETVGSTSVVAVVFPTHIFVANCGDSRAVLCRGKTPLALSVDHKPDRDDEAARIEAAGGKVIRWNGARVFGVLAMSRSIGDRYLKPSVIPDPEVTSVRRVKEDDCLILASDGLWDVMTNEEVCDLARKRILLWHKKNAMAGEALLPAEKRGEGKDPAAMSAAEYLSKMALQKGSKDNISVVVVDLKGIRKFKSKSLN
# B2: 6xHis-SUMO-ABI1 (protein)
# chain: HHHHHHSDSEVNQEAKPEVKPEVKPETHINLKVSDGSSEIFFKIKKTTPLRRLMEAFAKRQGKEMDSLRFLYDGIRIQADQTPEDLDMEDNDIIEAHREQIGGMEEVSPAIAGPFRPFSETQMDFTGIRLGKGYCNNQYSNQDSENGDLMVSLPETSSCSVSGSHGSESRKVLISRINSPNLNMKESAAADIVVVDISAGDEINGSDITSEKKMISRTESRSLFEFKSVPLYGFTSICGRRPEMEDAVSTIPRFLQSSSGSMLDGRFDPQSAAHFFGVYDGHGGSQVANYCRERMHLALAEEIAKEKPMLCDGDTWLEKWKKALFNSFLRVDSEIESVAPETVGSTSVVAVVFPSHIFVANCGDSRAVLCRGKTALPLSVDHKPDREDEAARIEAAGGKVIQWNGARVFGVLAMSRSIGDRYLKPSIIPDPEVTAVKRVKEDDCLILASDGVWDVMTDEEACEMARKRILLWHKKNAVAGDASLLADERRKEGKDPAAMSAAEYLSKLAIQRGSKDNISVVVVDLKPRRKLKSKPLN
# Legend:
# [1] = target: T1, PYR1^CA4 (H60P, V83F, F159V, M158I), …
# [2] = target: T2, PYR1^CA3 (H60P, V83F, F159V), 6xHis …
Protein,"PP2C activity, % of control, pNPP hydrolysis, in the absence of ABA [1]","PP2C activity, % of control, pNPP hydrolysis, in the absence of ABA [2]"
B1,both the triple and quadruple mutants dramatically increased basal PYR1 activity relative to wild-type PYR1,both the triple and quadruple mutants dramatically increased basal PYR1 activity relative to wild-type PYR1
B2,both the triple and quadruple mutants dramatically increased basal PYR1 activity relative to wild-type PYR1,both the triple and quadruple mutants dramatically increased basal PYR1 activity relative to wild-type PYR1
